# Test results reported in article PMC6322289 (2019).
# B1: hevein (natural protein)
# chain: EQCGRQAGGKLCPNNLCCSQWGWCGSTDEYCSPDHNCQSNCKD
# B2: pro-hevein (natural protein)
# chain: EQCGRQAGGKLCPNNLCCSQWGWCGSTDEYCSPDHNCQSNCKDSGEGVGGGSASNVLATYHLYNSQDHGWDLNAASAYCSTWDANKPYSWRSKYGWTAFCGPVGAHGQSSCGKCLSVTNTGTGAKTTVRIVDQCSNGGLDLDVNVFRQLDTDGKGYERGHITVNYQFVDCGDSFNPLFSVMKSSVIN
# Target: β-1,3-glucanase (Hevea brasiliensis (endogenous in latex …, UniProt P52407 37-356))
# Experiment: SPR
# β-1,3-glucanase (Hevea brasiliensis, sequence (P52407 37-356): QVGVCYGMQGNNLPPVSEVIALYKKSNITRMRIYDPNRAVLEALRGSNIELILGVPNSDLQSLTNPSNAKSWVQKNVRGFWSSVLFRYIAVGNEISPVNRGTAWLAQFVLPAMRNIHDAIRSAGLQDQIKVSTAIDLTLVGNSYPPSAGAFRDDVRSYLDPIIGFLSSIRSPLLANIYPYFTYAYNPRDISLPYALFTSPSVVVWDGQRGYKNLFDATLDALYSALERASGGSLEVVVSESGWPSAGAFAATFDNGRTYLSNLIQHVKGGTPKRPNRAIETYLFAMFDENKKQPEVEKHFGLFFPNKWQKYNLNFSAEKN
row,Binder,koff [s⁻¹]
1,B1,0.013
2,B2,0.0794
